{"source": "patent US7067486", "target": "PKCβII of mouse brain (UniProt P68404)", "sequence (P68404 other isoform, or with tags, fused parts or gaps)": "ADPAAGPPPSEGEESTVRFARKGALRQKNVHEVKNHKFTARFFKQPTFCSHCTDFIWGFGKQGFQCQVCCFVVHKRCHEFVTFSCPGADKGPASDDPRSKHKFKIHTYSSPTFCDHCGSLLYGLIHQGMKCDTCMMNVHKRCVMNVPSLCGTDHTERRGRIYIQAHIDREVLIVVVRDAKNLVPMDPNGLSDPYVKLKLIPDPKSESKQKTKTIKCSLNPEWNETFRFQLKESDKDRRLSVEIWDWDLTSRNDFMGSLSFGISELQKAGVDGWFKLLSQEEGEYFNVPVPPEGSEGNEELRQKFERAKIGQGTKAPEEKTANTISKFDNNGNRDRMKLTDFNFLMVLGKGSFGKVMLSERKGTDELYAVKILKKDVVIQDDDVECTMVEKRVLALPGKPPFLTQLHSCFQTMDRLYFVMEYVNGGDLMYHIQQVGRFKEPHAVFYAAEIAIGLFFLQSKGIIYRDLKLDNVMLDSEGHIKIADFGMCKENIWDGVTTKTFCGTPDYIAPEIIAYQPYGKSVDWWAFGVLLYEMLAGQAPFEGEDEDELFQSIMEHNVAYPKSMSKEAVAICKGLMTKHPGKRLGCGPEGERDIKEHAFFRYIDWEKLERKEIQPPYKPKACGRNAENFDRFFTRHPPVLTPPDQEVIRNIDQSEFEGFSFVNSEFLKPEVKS", "data": [{"substance": "human \"readthrough\" acetylcholinesterase variant AChE-R, recombinant full protein", "values": [{"measurement": "PKC activity in brain homogenates (PKC assay kit, Upstate Biotechnology)", "value": "Note the elevation of PKC activity in the different brain regions in the AChE-R transgenics as compered to FVB/N controls"}]}]}
